Ends that are not written are not given here.

The target in assay [1] is T1, DRα1-mMOG-35-55.
T1 construct: Coated onto ELISA plates at 1 µg/ml; also called DRa1mMOG-35-55; DRα1-MOG-35-55
In words: competition ELISA (FIG. 4), competitor against rmCD74 on DRα1mMOG-35-55. On the technique in general: In an ELISA, binding on a coated surface is turned into a signal by an enzyme label.

The target of assay [2] is T2, RTL1000.
T2 construct: Coated onto ELISA plates at 1 µg/ml; also called recombinant T cell receptor ligand
In words: competition ELISA, RTL1000 coated, competitor against rmCD74 (50 nM), one-binding-site fit. The method, then: (§1) Competition of peptides with rmCD74 for binding to RTL1000 or DRα1mMOG35-55 was also tested. Briefly, 50 μl of 1 μg/ml either RTL1000 or DRα1mMOG-35-55 were coated onto ELISA plates at 25° C. for 2 hours. […] Serial 1:2 dilutions of α-helix 1 or α-helix 2 (starting with a concentration of 66 μM, 50 μg/ml each) were prepared in rmCD74 (in BSA/PBS, 50 nM, 0.5 ug/ml) and added to the plate. Competition for the binding site was allowed for 3 hours at 25° C. and then unbound complexes were washed 4 times with PBS/T20. Remaining rmCD74 bound to RTL1000 or DRα1mMOG-35-55 was detected by the PIN.1/anti-mouse IgG1-HRP at 1 ul/ml of both in BSA/PBS for 1.5 hours at 25° C. and visualized by adding TMB substrate (50 μl, according to the manufacturer's instructions). Color development was stopped with 0.1N HCl and the plate was read at 450 nm in an ELISA plate reader. Data were normalized and fitted to a one-binding site model and competitor concentration was plotted against Absorbance at 450 nm to determine the IC₅₀ of each peptide competitor. All data were analyzed using Prism software (GraphPad).

Assay [3] addresses T3, human macrophage migration inhibitory factor (MIF) (human, UniProt P14174 2-115).
T3 construct: Coated onto ELISA plates at 0.5 µg/ml; also called hMIF; human MIF
In words: competition ELISA, hMIF coated, competitor against rmCD74 (0.5 µg/ml), two-binding-site fit. The procedure: (§2) The ability of α-helix 1 and α-helix 2 peptides to compete with MIF for binding to CD74 was tested. […] Wells were thoroughly washed with PBS/T20 and the mAb PIN.1/anti-mIgG1-HRP (at 0.5 μg/ml in 5% BSA/PBS each) was used to detect the remaining rmCD74 bound to MIF. This mAb recognizes an epitope located at the N-terminus of the protein. Color was developed after adding 50 μl of TMB for 5 minutes and the reaction was stopped with 50 μl of 0.1N HCl. Data was first normalized and then analyzed using GraphPad Prism software. IC₅₀ were calculated by fitting the curve to a competition model involving a two-binding site equation.

The target of assay [4] is T1, DRα1-mMOG-35-55. Briefly: competition ELISA, DRα1mMOG-35-55 coated, competitor against rmCD74 (50 nM), one-binding-site fit. The procedure:
as §1

Assay [5] addresses T1, DRα1-mMOG-35-55. In words: competition ELISA (FIG. 4, right panel), competitor against rmCD74 on DRα1-mMOG-35-55.
For assay [6], the target named is T3, human macrophage migration inhibitory …. Briefly: competition ELISA, hMIF coated, competitor against rmCD74. The method, then: as §2
In assay [7] the target is T1, DRα1-mMOG-35-55. In words: competition ELISA (FIG. 4, left panel), competitor against rmCD74 on DRα1-mMOG-35-55.

B1: CD74 α-helix 1 peptide (SEQ ID NO: 2) (peptide)
peptide: TEDHVMHLLQNAD
notes: also called human CD74 α-helix 1; alpha helix 1
For the molecule B1, the IC50 (in general, the concentration that gives 50% inhibition) in assay [1] worked out at 35 µM; in assay [2], 6.78 µM; in assay [3], 41.8 µM; in assay [4] it was 10.1 µM; in assay [5], 35 µM. Moreover, the LogIC50 turned out to be 0.831 in assay [2] and 1 in assay [4].

B2: CD74 α-helix 2 peptide (SEQ ID NO: 4) (peptide)
peptide: KGSFPENLRHLKNTMET
notes: also called human CD74 α-helix 2; alpha helix 2
Turning to B2, the half-maximal inhibitory concentration (IC50) is 34.3 µM in assay [2], 114 µM in assay [3], 167 µM in assay [4] and 24.5 µM in assay [5]. Moreover, the LogIC50 in assay [2] turned out to be 1.53; in assay [4], 2.22.

B3: mixture of synthetic peptides SEQ ID NO: 2 (α-helix 1) and SEQ ID NO: 4 (α-helix 2) (other)
peptide 1: TEDHVMHLLQNAD
peptide 2: KGSFPENLRHLKNTMET
modifications: also: mixture of two separate peptides, not covalently linked
notes: A mixture of two separate peptides that are not covalently linked; In the hMIF assay the starting concentration was 33 µM of each peptide, 66 µM in total; also called α-helix 1 plus α-helix 2; combined peptides
As to B3, the IC50 in assay [1] was 4.75 µM; in assay [3], 3.74 µM; in assay [7], 4.71 µM. For the same molecule, the “fold increase of the blocking effect against α-helix 1 alone” value in assay [6] amounted to 10 fold.
